{"source": "patent US20210163624A1", "key": {"[1]": {"target": "RMF peptide (…)/HLA-A0201 complex on the cell surface (human)", "test": "flow cytometry, T2 cells pulsed with WT1 (RMF) peptide 50 ug/ml, control mAb at 10 (ug/ml by paragraph 199); secondary alone (T2-WT1-2AB) prints 18"}, "[2]": {"target": "RMF peptide (…)/HLA-A0201 complex on the cell surface (human)", "test": "flow cytometry, T2 cells pulsed with WT1 (RMF) peptide 50 ug/ml, control mAb at 0.1 (ug/ml by paragraph 199); secondary alone (T2-WT1-2AB) prints 18"}, "[3]": {"target": "RMF peptide (…)/HLA-A0201 complex on the cell surface (human)", "test": "flow cytometry, T2 cells pulsed with WT1 (RMF) peptide 50 ug/ml, control mAb at 0.01 (ug/ml by paragraph 199); secondary alone (T2-WT1-2AB) prints 18"}, "[4]": {"target": "RMF peptide (…)/HLA-A0201 complex on the cell surface (human)", "test": "flow cytometry, T2 cells pulsed with WT1 (RMF) peptide 50 ug/ml, control mAb at 1 (ug/ml by paragraph 199); secondary alone (T2-WT1-2AB) prints 18"}}, "data": [{"substance": "Isotype control human IgG1 (antibody)", "values": [{"measurement": "fluorescence value (FL2-H: PE; statistic not given)", "setting": "[1]", "result": 31.1}, {"measurement": "fluorescence value (FL2-H: PE; statistic not given)", "setting": "[2]", "result": 29.5}, {"measurement": "fluorescence value (FL2-H: PE; statistic not given)", "setting": "[3]", "result": 31.8}, {"measurement": "fluorescence value (FL2-H: PE; statistic not given)", "setting": "[4]", "result": 37.9}]}]}
